T1: PmoB subunit of particulate methane monooxygenase from Methylomicrobium alcaliphilum 20Z (20Z-pMMO) (Methylomicrobium alcaliphilum 20Z, UniProt G4SZ64 33-414, methyl-lysine at Lys 36 (~100% stoichiometry))
T1 construct: PmoB subunit of pMMO, Methylomicrobium alcaliphilum 20Z; residues His 33 to Ile 414 after cleavage of the N-terminal signal peptide; theoretical mass 42,147.17 Da; also called 20Z-pMMO PmoB; source: endogenous, Mm. alcaliphilum 20Z membranes, solubilized with DDM, purified by anion exchange chromatography
T1 sequence (looked up): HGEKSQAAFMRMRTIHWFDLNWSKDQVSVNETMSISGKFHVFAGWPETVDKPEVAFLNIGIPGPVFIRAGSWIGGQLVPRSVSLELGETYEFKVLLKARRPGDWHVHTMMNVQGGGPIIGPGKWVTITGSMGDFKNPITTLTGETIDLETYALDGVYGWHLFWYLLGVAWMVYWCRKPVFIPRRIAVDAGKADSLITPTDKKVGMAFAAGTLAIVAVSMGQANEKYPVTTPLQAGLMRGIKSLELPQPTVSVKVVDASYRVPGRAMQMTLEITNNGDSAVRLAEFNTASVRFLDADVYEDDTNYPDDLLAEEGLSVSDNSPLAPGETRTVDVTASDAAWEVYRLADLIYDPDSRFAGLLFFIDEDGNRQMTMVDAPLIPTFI

B1: PmoC subunit of particulate methane monooxygenase from Methylomicrobium alcaliphilum 20Z (20Z-pMMO), truncated proteoform (natural protein, UniProt G4SZ62 7-250, looked up)
chain: SVKADAAEAPLLNKKNIIAGASLYLVFYAWVRWYEGVYGWSAGLDSFAPEFETYWMNFLYIEMVLEVLTASVLWGYIWKSRDRKVMSITPREELRRHFTHWTWLMMYGIAIYFGASYFTEQDGTWHQTIVRDTDFTPSHIIEFYLSYPIYIITGGASFLYAKTRLPTYQQGLSLQYLVVVVGPFMILPNVGLNEWGHTFWFMEELFVAPLHYGFVFFGWSALGVLGVINIELGALSKLLKKDLA
notes: PmoC subunit of pMMO, Methylomicrobium alcaliphilum 20Z; the major species is a truncated form without the first six N-terminal residues (MAATTE); theoretical mass of the whole subunit 28,851.4 Da; A minor PmoC species without the initiator methionine and with N-terminal acetylation was also seen from nanodiscs; also called truncated PmoC; 20Z-pMMO PmoC; source: endogenous, Mm. alcaliphilum 20Z …
B2: PmoA subunit of particulate methane monooxygenase from Methylomicrobium alcaliphilum 20Z (20Z-pMMO) (natural protein, UniProt G4SZ63 2-247, looked up)
chain: SASQSAVRSRAEAVKVSRTFDYMILFTVFFVVLGGYHIHYMLTGGDWDFWTDWKDRRLWVTVAPIVSITFPAAVQAVLWWRYRIAWGATLCVLGLLLGEWINRYFNFWGWTYFPVNFVFPSNLMPGAIVLDVILMLSNSMTLTAVVGGLAWGLLFYPGNWPIIAPLHVPVEYNGMMMTLADLQGYHYVRTGTPEYIRMVEKGTLRTFGKDVAPVSAFFSGFVSILIYFLWHFFGSWFGSEKFVQAA
modifications: initiator methionine removed (MetOFF); N-terminal acetylation (NtAc) on the new N-terminus
notes: PmoA subunit of pMMO, Methylomicrobium alcaliphilum 20Z; theoretical mass of the unmodified subunit 28,257.1 Da; found without the initiator methionine and N-terminally acetylated; also called 20Z-pMMO PmoA; source: endogenous, Mm. alcaliphilum 20Z membranes, solubilized with DDM, purified by anion exchange chromatography

What was measured:
[1] = biological target: T1, PmoB subunit of particulate methane …; assay: native MS; pMMO solubilized in DDM, exchanged into 200 mM ammonium acetate, pH 7.2, 0.155% (w/v) Triton X-100; protomer ejected from the micelle (MS^1), then subunits ejected from the protomer by collisional activation (MS^2); conditions: both partners purified
[2] = biological target: B2; assay: native MS; pMMO in POPC nanodiscs (MSP2N2 or MSP1E3D1), 200 mM ammonium acetate, pH 7.2; subunits ejected from the pMMO-nanodisc complex by CID at the source (MS^2) and fragmented (MS^3); no intact mass of the complex obtained; conditions: both partners purified

Binder	binding result [1]	binding result [2]
B1	binds	binds
B2	binds	

— PMC6572826, “Native top-down mass spectrometry provides insights into the copper centers of membrane-bound methane monooxygenase” (Nature Communications, 2019)
